From patent US20240368263A1 (PROMETHEUS BIOSCIENCES, published 2024)
Where a chain is given by its changes, count along the chain named.

T1: Fas/TNFSF6 (R&D Systems, cat. no. 126-FL/CF) (UniProt P48023 134-281)
T1 sequence (looked up): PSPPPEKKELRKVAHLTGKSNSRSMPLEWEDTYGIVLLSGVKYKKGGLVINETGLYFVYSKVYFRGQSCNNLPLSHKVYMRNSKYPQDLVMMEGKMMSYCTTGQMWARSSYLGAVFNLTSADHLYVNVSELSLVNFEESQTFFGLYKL

T2: human TL1A (Fitzgerald, Prod. #30R-AT070) (human, UniProt O95150 72-251, limits assumed, biotinylated with EZ-Link Sulfo-NHS-LC-Biotin where used as soluble antigen)
T2 construct: also called TNFSF15; biotinylated human TL1A
T2 sequence (looked up): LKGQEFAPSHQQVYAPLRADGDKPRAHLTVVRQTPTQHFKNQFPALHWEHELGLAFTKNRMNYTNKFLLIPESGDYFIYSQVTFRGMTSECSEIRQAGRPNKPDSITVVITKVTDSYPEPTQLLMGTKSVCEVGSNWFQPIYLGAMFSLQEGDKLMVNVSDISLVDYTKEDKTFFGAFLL

T3: membrane-associated human TL1A on transfected HEK293 cells (human, UniProt O95150 1-251)
T3 construct: whole, on cells
T3 sequence (looked up): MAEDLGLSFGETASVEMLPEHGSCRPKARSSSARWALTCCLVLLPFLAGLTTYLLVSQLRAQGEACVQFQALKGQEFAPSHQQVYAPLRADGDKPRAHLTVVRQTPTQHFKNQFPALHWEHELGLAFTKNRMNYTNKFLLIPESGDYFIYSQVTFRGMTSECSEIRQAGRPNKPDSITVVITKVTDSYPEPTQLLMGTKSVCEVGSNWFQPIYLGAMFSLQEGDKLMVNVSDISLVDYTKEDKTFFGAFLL

B1: Clone 3-17L Fab (Fab, V domains shown)
VH: QVQLVQSGAEVKKPGASVKVSCKASGFDIQDTYMHWVRQAPGQGLEWMGRIDPASGHLKYDPKFQGRVTITRDTSASTVYMELSSLRSEDTAVYYCARSGGLPDMWGQGTTVTVSS
VL: EIVLTQSPGTLSLSPGERATLSCRASSSVSYMYWYQQKPGQAPRLLIYATSNLASGIPDRFSGSGSGTDFTLTISRLEPEDFAVYYCQQWQGNPRTFGGGTKLEIK
notes: Fab
B2: Clone H2-5 Fab (Fab, V domains shown)
VH: B1 VH with L58Y, G66V, V68A, R72T, V79A, M81L, E82Q, M105F
VL: B1 VL with Q91S
notes: Fab; also called Clone 112-5
B3: Clone H2-2 Fab (Fab, V domains shown)
VH: B1 VH with L58S, G66V, V68A, R72T, V79A, M81L, E82Q, M105F
VL: B1 VL with Q91S
notes: Fab; also called Clone 112-2
B4: Clone A1 Fab (Fab, V domains shown)
VH: B1 VH with G66N, I70M, A76T, M105K
VL: B1 VL with R24G, Q91E
notes: Fab
B5: Clone E1 Fab (Fab, V domains shown)
VH: B1 VH with D52E, G66E, I70M, A76T, M105K
VL: B1 VL with R24G, Q91E
notes: Fab
B6: Clone 3-17L V-A Fab (Fab, V domains shown)
VH: B1 VH with V79A
VL: B1 VL
notes: Fab
B7: Clone H3-1 Fab (Fab, V domains shown)
VH: B1 VH with L58T, V68A, R72T, V79A, M81L, E82Q, M105L
VL: B1 VL with Q91S
notes: Fab
B8: Clone 17L-1 Fab (Fab, V domains shown)
VH: B1 VH with G66R, I70M, A76T
VL: B1 VL
notes: Fab
B9: Clone 16 Fab (Fab, V domains shown)
VH: B1 VH with L58V, Y60I, G66V, I70M, A76T
VL: B1 VL
notes: Fab; also called Clone 16L
B10: Clone L3-13 Fab (Fab, V domains shown)
VH: B1 VH with L58T, V68A, R72T, V79A, M81L, E82Q, M105F
VL: B1 VL with Q91K
notes: Fab

Legend:
[1] = target: LIGHT/TNFSF14 (R&D Systems, cat. no. 664-LI/CF) (UniProt O43557 74-240); experiment: ELISA, antigen coated at 1 µg/ml, Fab titrated
Procedure: (§1) Next, all the Fab variants were characterized for their selectivity for human TL1A relative to other TNFSF members TRAIL, LIGHT and Fas. […] The plate was washed 3 times with PBS-T and blocked with 100 μl of 1% BSA/PBS. The block was discarded and the Fab variants or control antibodies (Fas/TNFSF6, R&D Systems, cat. no. AF126; TRAIL/TNFSF10, R&D Systems, cat. no. AF375; LIGHT/TNFSF14, R&D Systems, cat. no. AF664) were titrated in 50 μl 1% BSA/PBS and incubated for 1 h at 25° C. The plate was washed 3 times with PBS-T and secondary HRP-conjugated antibody (diluted 5,000-fold in 1% BSA/PBS) was added for 1 h at 25° C. The plate was washed 3 times with PBS-T and developed.

[2] = target: TRAIL/TNFSF10 (R&D Systems, cat. no. 375-TL/CF) (UniProt P50591 114-281); experiment: ELISA, antigen coated at 1 µg/ml, Fab titrated
Procedure: as §1

[3] = target: T1, Fas/TNFSF6 (R&D Systems, cat. no. …); experiment: ELISA, antigen coated at 1 µg/ml, Fab titrated
Procedure: as §1

[4] = target: T2, human TL1A (Fitzgerald, Prod. …); experiment: two ELISA formats: Fab on coated TL1A; captured Fab with biotinylated TL1A
Procedure: Fabs with the CDRs shown in Tables 19 to 22 were tested for binding to human TL1A in multiple formats. Next, uniform (saturating) quantities of soluble Fab variants were captured on the surface of an ELISA plate and soluble, biotinylated human TL1A was titrated as shown in FIGS. 10 to 13.

[5] = target: T3, membrane-associated human TL1A on …; experiment: flow cytometry, HEK293 cells transfected with human TL1A
Procedure: All the Fab variants were tested for binding to membrane-associated human TL1A. For these studies a HEK293 cell line that had been transfected with human TL1A was used. The 293 cells expressing membrane bound human TL1A were maintained in DMEM containing L-glutamine, glucose, sodium pyruvate, and phenol red (ThermoFisher cat #11995-065) plus 10% fetal bovine serum, 1X penicillin-streptomycin (Fisher cat #15140122) and 2 μg/ml puromycin (Gibco cat #A11138-03) in a 37° C. incubator with 5% CO2. Three days prior to the assay, a T-75 flask was seeded with 3×10⁶ cells so that the flask was 90-95% confluent on the day of the assay. The media was aspirated and the cell monolayer was gently washed with 5 ml PBS. Adherent cells were removed by repeatedly pipetting 10 ml ice cold 1% BSA/PBS against the monolayer. The cells were counted and 5×10⁵ were aliquoted for each sample to be analyzed. The cells were collected by centrifuging at 300× g at 4° C. for 5 minutes and the wash was discarded. The cells were resuspended in 100 μl Fab or IgG diluted in 1% BSA/PBS and placed on ice for 30 min. Next, the cells were washed with 1 ml 1% BSA/PBS and collected by centrifuging at 300× g at 4° C. for 5 min. The wash was discarded and 100 μl secondary goat F (ab′) 2 anti-human kappa FITC (Southern Biotech cat #2062-02) or goat F (ab′) 2 anti-human IgG PE (Southern Biotech cat #2043-09) conjugate, diluted 1:200 in BSA/PBS was added. Cells were placed on ice for 30 min. Finally, the cells were washed with 1 ml BSA/PBS, collected by centrifuging at 300× g at 4° C. for 5 min. The wash was removed and the cells were resuspended in 500 μl 1% BSA/PBS. One drop of Sytox AADvanced ReadyFlow Reagent (ThermoFisher cat #R37173) was added per sample and the samples were analyzed on the Attune NXT Flow Cytometer (ThermoFisher).

TRAIL/TNFSF10 (R&D Systems, cat. no. 375-TL/CF), sequence (P50591 114-281 limits assumed): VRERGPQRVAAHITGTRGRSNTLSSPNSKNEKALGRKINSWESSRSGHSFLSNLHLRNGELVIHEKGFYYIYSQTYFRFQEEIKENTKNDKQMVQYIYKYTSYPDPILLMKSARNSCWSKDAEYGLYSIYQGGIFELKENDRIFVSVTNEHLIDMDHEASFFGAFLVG
LIGHT/TNFSF14 (R&D Systems, cat. no. 664-LI/CF), sequence (O43557 74-240 limits assumed): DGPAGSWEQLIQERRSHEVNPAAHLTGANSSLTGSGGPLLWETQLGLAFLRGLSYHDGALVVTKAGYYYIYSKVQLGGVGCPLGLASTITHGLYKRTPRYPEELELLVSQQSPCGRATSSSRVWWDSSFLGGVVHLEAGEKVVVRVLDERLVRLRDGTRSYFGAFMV

Row | Binder | binding result [1] | binding result [2] | binding result [3] | binding result [4] | binding result [5]
1 | B1 | no binding | no binding | no binding | binds | binds
2 | B2 | no binding | no binding | no binding | binds | binds
3 | B3 | no binding | no binding | no binding | binds | binds
4 | B4 | no binding | no binding | no binding | binds | binds
5 | B5 | no binding | no binding | no binding | binds | binds
6 | B6 | no binding | no binding | no binding | binds | binds
7 | B7 | no binding | no binding | no binding | binds | binds
8 | B8 | no binding | no binding | no binding | binds | binds
9 | B9 | no binding | no binding | no binding | binds | binds
10 | B10 | no binding | no binding | no binding | binds | binds
